From publication PMC8241838, “Structural mechanism of laminin recognition by integrin” (Nature Communications, 2021) come the findings set out here.

In experiment [1] the target is α6β1 integrin on Expi293F cells, α6 D153A (human, UniProt P05556 21-798, Mn2+; A cytoplasmic form assumed). The experiment in a line: flow cytometry on cells; Expi293F cells transiently expressing α6 (wild type or mutant) with β1, in HBS-BSA with 0.5 mM MnCl2, varying concentrations of sfGFP-tLM511, room temperature 2 h, no washing; non-transfected cells as baseline. As to conditions: one partner purified.
α6β1 integrin on Expi293F cells, α6 D153A, sequence (chain, as listed by the source D153A, chain 1 of 2): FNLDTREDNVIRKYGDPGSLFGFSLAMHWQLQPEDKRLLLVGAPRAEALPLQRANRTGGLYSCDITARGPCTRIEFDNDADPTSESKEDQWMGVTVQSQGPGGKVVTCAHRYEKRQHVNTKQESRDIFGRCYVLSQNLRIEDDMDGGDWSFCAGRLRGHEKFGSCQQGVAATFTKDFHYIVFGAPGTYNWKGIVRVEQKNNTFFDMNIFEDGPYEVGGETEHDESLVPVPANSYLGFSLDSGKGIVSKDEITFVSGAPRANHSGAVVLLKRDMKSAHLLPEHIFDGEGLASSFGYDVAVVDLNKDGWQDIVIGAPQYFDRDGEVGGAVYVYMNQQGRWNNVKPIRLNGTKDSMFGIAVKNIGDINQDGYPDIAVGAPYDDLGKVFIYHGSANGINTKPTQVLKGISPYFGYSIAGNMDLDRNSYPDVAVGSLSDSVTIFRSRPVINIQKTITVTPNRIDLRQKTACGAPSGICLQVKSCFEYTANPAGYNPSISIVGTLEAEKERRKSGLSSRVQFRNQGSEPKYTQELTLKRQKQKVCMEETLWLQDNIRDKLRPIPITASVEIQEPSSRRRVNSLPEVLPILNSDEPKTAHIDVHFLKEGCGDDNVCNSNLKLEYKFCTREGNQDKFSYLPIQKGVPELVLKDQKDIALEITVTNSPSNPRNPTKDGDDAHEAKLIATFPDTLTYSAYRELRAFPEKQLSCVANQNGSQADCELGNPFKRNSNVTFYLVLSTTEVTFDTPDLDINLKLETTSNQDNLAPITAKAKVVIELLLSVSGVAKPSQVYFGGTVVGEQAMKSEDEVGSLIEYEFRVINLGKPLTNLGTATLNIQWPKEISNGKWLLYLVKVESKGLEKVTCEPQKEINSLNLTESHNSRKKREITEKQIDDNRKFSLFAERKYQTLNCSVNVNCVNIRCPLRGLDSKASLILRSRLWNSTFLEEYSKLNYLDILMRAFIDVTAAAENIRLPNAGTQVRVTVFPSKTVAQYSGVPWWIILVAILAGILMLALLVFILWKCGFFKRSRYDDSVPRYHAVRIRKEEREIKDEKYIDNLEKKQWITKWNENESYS
α6β1 integrin on Expi293F cells, α6 D153A, sequence (P05556 21-798, chain 2 of 2): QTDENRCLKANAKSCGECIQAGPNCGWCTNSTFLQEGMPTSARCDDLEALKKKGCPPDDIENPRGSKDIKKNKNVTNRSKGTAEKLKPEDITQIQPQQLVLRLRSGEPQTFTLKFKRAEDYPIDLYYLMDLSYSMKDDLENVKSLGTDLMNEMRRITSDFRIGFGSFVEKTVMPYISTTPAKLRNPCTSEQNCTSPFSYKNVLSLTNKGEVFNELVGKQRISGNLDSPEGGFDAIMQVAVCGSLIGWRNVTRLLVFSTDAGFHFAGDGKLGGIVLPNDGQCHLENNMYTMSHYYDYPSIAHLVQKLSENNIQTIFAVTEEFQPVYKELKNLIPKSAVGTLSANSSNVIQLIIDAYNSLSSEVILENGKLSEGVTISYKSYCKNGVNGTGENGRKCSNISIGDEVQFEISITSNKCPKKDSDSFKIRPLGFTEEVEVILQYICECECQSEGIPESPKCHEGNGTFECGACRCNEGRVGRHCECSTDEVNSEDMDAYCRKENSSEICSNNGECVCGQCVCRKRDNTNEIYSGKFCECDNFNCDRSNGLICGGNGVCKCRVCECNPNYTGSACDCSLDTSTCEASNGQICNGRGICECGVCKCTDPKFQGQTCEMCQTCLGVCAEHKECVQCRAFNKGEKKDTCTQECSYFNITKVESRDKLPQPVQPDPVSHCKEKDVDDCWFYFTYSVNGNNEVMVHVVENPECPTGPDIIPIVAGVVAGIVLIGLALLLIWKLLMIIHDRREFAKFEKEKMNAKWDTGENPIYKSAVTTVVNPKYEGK

Experiment [2] deals with α6β1 integrin on Expi293F cells, α6 R157A (human, UniProt P05556 21-798, Mn2+; A cytoplasmic form assumed). Described as above. As to conditions: one partner purified.
α6β1 integrin on Expi293F cells, α6 R157A, sequence (chain, as listed by the source R157A, chain 1 of 2): as the sequence (chain, as listed by the source D153A, chain 1 of 2) above, with A153D, R157A counted along it
α6β1 integrin on Expi293F cells, α6 R157A, sequence (P05556 21-798, chain 2 of 2): as the sequence (P05556 21-798, chain 2 of 2) above

B1: trimeric fusion protein PA-sfGFP-tLM511 (complex)
chain 1: ENVERWQGQYEGLRGQDLGQAVLDAGHSVSTLEKTLPQLLAKLSILENRGVHNASLALSASIGRVRELIAQARGAASKVKVPMKFNGRSGVQLRTPRDLADLAAYTALKFYLQGPEPEPGQGTEDRFVMYMGSRQATGDYMGVSLRDKKVHWVYQLGEAGPAVLSIDEDIGEQFAAVSLDRTLQFGHMSVTVERQMIQETKGDTVAPGAEGLLNLRPDDFVFYVGGYPSTFTPPPLLRFPGYRGCIEMDTLNEEVVSLYNFERTFQLDTAVDRPCARSKSTGDPWLTDGSYLDGTGFARISFDSQISTTKRFEQELRLVSYSGVLFFLKQQSQFLCLAVQEGSLVLLYDFGAGLKKAVPLQPPPPLTSASKAIQVFLLGGSRKRVLVRVERATVYSVEQDNDLELADAYYLGGVPPDQLPPSLRRLFPTGGSVRGCVKGIKALGKYVDLKRLNTTGVSAGCTADLLVGRAMTFHGHGFLRLALSNVAPLTGNVYSGFGFHSAQDSALLYYRASPDGLCQVSLQQGRVSLQLLRTEVKTQAGFADGAPHYVAFYSNATGVWLYVDDQLQQMKPHRGPPPELQPQPEGPPRLLLGGLPESGTIYNFSGCISNVFVQRLLGPQRVFDLQQNLGSVNVSTGCAPALQAQTPGLGPRGLQATARKASRRSRQPARHPA
chain 2: not shown
chain 3: DTVDLNKLNEIEGTLNKAKDEMKVSDLDRKVSDLENEAKKQEAAIMDYNRDIEEIMKDIRNLEDIRKTLPSGCFNTPSIEKP
notes: laminin α5 chain (tLMα5), human, residues E2655-A3327, numbered from the initiation Met; sfGFP inserted between the PA tag and tLMα5; laminin β1 chain (tLMβ1), human, residues D1714-L1786, numbered from the initiation Met; laminin γ1 chain (tLMγ1), human, residues D1528-P1609, numbered from the initiation Met; sfGFP gene: GenBank ASL68970.1; also called sfGFP-fused tLM511; fluorescent tLM511 …
Consider B1, for which the “fold increase in KD over the wild type” value in experiment [1] turned out to be 3.6 fold; in experiment [2] it was 2.3 fold.
